Assay results: paper PMC4528709, “Determinants in HIV-2 Env and tetherin required for functional interaction” (Retrovirology, 2015)

Target: T1, GFP-tagged ROD10 Env_(Y707A) (HIV-2 (strain ROD10), UniProt P04577 20-858, Y707A)
T1 construct: Env protein of HIV-2 strain ROD10 with a point mutation that disrupts an endocytosis motif in the cytoplasmic tail (pROD10_(Y707A) Env); also called Y707A mutant; source: 293T, co-transfected (2 ug plasmid), in lysate; not shown: eGFP, C-terminal, kept
T1 sequence (looked up): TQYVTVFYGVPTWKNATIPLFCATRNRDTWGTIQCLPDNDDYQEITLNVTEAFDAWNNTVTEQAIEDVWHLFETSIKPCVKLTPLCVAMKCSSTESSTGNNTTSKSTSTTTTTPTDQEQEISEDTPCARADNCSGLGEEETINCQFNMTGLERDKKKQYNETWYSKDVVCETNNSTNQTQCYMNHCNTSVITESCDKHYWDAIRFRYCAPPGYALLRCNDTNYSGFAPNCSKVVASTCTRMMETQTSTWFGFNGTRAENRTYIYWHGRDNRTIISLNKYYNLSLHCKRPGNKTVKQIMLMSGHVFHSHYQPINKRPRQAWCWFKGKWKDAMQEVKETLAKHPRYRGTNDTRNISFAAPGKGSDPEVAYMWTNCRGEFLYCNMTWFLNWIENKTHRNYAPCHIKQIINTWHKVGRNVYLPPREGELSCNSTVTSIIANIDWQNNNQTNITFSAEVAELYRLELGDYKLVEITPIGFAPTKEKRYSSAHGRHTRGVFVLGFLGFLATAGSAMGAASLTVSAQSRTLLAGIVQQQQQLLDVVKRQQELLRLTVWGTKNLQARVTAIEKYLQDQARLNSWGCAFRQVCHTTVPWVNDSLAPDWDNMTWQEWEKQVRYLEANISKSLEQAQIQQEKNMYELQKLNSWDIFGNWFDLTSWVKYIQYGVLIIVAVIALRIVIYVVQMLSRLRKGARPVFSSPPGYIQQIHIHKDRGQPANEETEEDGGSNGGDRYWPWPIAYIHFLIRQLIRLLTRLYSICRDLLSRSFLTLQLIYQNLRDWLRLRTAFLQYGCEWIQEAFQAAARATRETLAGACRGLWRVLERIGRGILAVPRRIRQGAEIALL
Experiment: co-IP; quantification of tetherin immunoprecipitated by GFP-tagged Env, corrected for the cellular level of the Env protein, n = 3 experiments, data not shown
Settings: partners not purified

B1: tetherin/BST-2 (natural protein)
chain: MASTSYDYCRVPMEDGDKRCKLLLGIGILVLLIIVILGVPLIIFTIKANSEACRDGLRAVMECRNVTHLLQQELTEAQKGFQDVEAQAATCNHTVMALMASLDAEKAQGQKKVEELEGEITTLNHKLQDASAEVERLRRENQVLSVRIADKKYYPSSQDSS
notes: tetherin/BST-2, human; untagged expression plasmid described in earlier work [20, 29, 38]; also called wild-type tetherin; source: 293T, co-transfected (200 ng plasmid), in lysate
- efficiency at immunoprecipitating tetherin relative to the WT ROD10 Env: 67%
